For assay [1], the target named is VRC01-resistant viruses.
For assay [2], the target named is 6631.V3.C10 (HIV-1).
Assay [3] addresses VRC01-resistant viruses. The source holds these as a separate data set.
The target of assay [4] is gp120 of X2088 (HIV-1 strain X2088.c9).
Assay [5] deals with VRC01-resistant viruses. Nature of the assay: cell-based or functional assay.
In assay [6] the target is 6631.V3.C10 (HIV-1). This is another data set of the same source.
Assay [7] deals with VRC01-resistant viruses. The source holds these as a separate data set.
Assay [8] concerns the target gp120 of X2088 (HIV-1 strain X2088.c9). The source holds these as a separate data set.
The target of assay [9] is 6631.V3.C10 (HIV-1). This is another data set of the same source.
Assay [10] addresses T250-4 (HIV-1).
The target of assay [11] is VRC01-resistant viruses. This is another data set of the same source.
Assay [12] deals with gp120 of X2088 (HIV-1 strain X2088.c9). This is another data set of the same source.
In assay [13] the target is T250-4 (HIV-1). This is another data set of the same source.
Assay [14] concerns the target T250-4 (HIV-1). This is another data set of the same source.

Like-named read-outs stand apart in the source and are kept apart here.

B1: VRC01 (antibody, V domains shown)
VH: QVQLVQSGGQMKKPGESMRISCRASGYEFIDCTLNWIRLAPGKRPEWMGWLKPRGGAVNYARPLQGRVTMTRDVYSDTAFLELRSLTVDDTAVYFCTRGKNCDYNWDFEHWGRGTPVIVSS
VL: EIVLTQSPGTLSLSPGETAIISCRTSQYGSLAWYQQRPGQAPRLVIYSGSTRAAGIPDRFSGSRWGPDYNLTISNLESGDFGVYYCQQYEFFGQGTKVQVDIKR
In the assay with VRC01-resistant viruses [1], B1 displayed a neutralisation IC50 greater than 50 µg/mL and a neutralisation median IC50 greater than 50 µg/mL.

B2: N6 Y54GHC (antibody, V domains shown)
VH: RAHLVQSGTAMKKPGASVRVSCQTSGYTFTAHILFWFRQAPGRGLEWVGWIKPQGGAVNFGGGFRDRVTLTRDVYREIAYMDIRGLKPDDTAVYYCARDRSYGDSSWALDAWGQGTTVVVSA
VL: YIHVTQSPSSLSVSIGDRVTINCQTSQGVGSDLHWYQHKPGRAPKLLIHHTSSVEDGVPSRFSGSGFHTSFNLTISDLQADDIATYYCQVLQFFGRGSRLHIK
With B2, the neutralisation IC50 was determined as 0.396 µg/mL in the assay with 6631.V3.C10 (HIV-1) [2] and 0.728 µg/mL in assay [4]. The same molecule displayed a neutralisation median IC50 in the assay with VRC01-resistant viruses [3] of 0.562 µg/mL. In addition, the fold decrease in neutralization (IC50 of antibody mutant/IC50 of antibody WT) in the assay with VRC01-resistant viruses [5] came to 32 fold.

B3: N6 VRC27FRH3 (antibody, V domains shown)
VH: RAHLVQSGTAMKKPGASVRVSCQTSGYTFTAHILFWFRQAPGRGLEWVGWIKPQYGAVNFGGGFRDRITLTRDIYRETAFLDLTGLRFDDTAVYYCARDRSYGDSSWALDAWGQGTTVVVSA
VL: YIHVTQSPSSLSVSIGDRVTINCQTSQGVGSDLHWYQHKPGRAPKLLIHHTSSVEDGVPSRFSGSGFHTSFNLTISDLQADDIATYYCQVLQFFGRGSRLHIK
As to B3, the neutralisation IC50 in the assay with 6631.V3.C10 (HIV-1) [6] was found to be 0.54 µg/mL; in assay [8], 0.509 µg/mL. In the assay with VRC01-resistant viruses [7], this molecule returned a neutralisation median IC50 of 0.525 µg/mL.

B4: N6 GGG60-62ARPHC (antibody, V domains shown)
VH: RAHLVQSGTAMKKPGASVRVSCQTSGYTFTAHILFWFRQAPGRGLEWVGWIKPQYGAVNFARPFRDRVTLTRDVYREIAYMDIRGLKPDDTAVYYCARDRSYGDSSWALDAWGQGTTVVVSA
VL: YIHVTQSPSSLSVSIGDRVTINCQTSQGVGSDLHWYQHKPGRAPKLLIHHTSSVEDGVPSRFSGSGFHTSFNLTISDLQADDIATYYCQVLQFFGRGSRLHIK
For B4, the neutralisation median IC50 with VRC01-resistant viruses [3] turned out to be 0.248 µg/mL. Moreover, the neutralisation IC50 in [4] was found to be 0.15 µg/mL. In addition, the fold decrease in neutralization (IC50 of antibody mutant/IC50 of antibody WT) with VRC01-resistant viruses [5] came to 14 fold.

B5: N6 VRC27FRH1 (antibody, V domains shown)
VH: SQRLVQSGPQVRKPGSSVRISCETSGYTFNAHILFWFRQAPGRGLEWVGWIKPQYGAVNFGGGFRDRVTLTRDVYREIAYMDIRGLKPDDTAVYYCARDRSYGDSSWALDAWGQGTTVVVSA
VL: YIHVTQSPSSLSVSIGDRVTINCQTSQGVGSDLHWYQHKPGRAPKLLIHHTSSVEDGVPSRFSGSGFHTSFNLTISDLQADDIATYYCQVLQFFGRGSRLHIK
For the molecule B5, the neutralisation IC50 amounted to 0.561 µg/mL with 6631.V3.C10 (HIV-1) [6] and 0.184 µg/mL in [8]. In the assay with VRC01-resistant viruses [7], this molecule had a neutralisation median IC50 of 0.373 µg/mL.

B6: VRC27 heavy chain with N6 light chain (antibody, V domains shown)
VH: QRLVQSGPQVRKPGSSVRISCETSGYTFNAYILHWFRQAPGRSFEWMGWIKPKFGAVNYAHSFQGRITLTRDIYRETAFLDLTGLRFDDTAVYYCARDRLYDGSSWRLDPWGQGTRVVVSS
VL: YIHVTQSPSSLSVSIGDRVTINCQTSQGVGSDLHWYQHKPGRAPKLLIHHTSSVEDGVPSRFSGSGFHTSFNLTISDLQADDIATYYCQVLQFFGRGSRLHIK
In the case of B6, the neutralisation IC50 in the assay with 6631.V3.C10 (HIV-1) [9] was greater than 50 µg/mL; with T250-4 (HIV-1) [10] it was 23.1 µg/mL; in [12] it was greater than 50 µg/mL. In addition, the neutralisation fold change (IC50 original/IC50 combination) with VRC01-resistant viruses [11] is 1 fold. In the assay with VRC01-resistant viruses [11], the neutralisation median IC50 is greater than 50 µg/mL.

B7: N6 VRC27FRH2 (antibody, V domains shown)
VH: RAHLVQSGTAMKKPGASVRVSCQTSGYTFTAHILFWFRQAPGRSFEWMGWIKPQYGAVNFGGGFRDRVTLTRDVYREIAYMDIRGLKPDDTAVYYCARDRSYGDSSWALDAWGQGTTVVVSA
VL: YIHVTQSPSSLSVSIGDRVTINCQTSQGVGSDLHWYQHKPGRAPKLLIHHTSSVEDGVPSRFSGSGFHTSFNLTISDLQADDIATYYCQVLQFFGRGSRLHIK
Take B7: the neutralisation median IC50 with VRC01-resistant viruses [7] turned out to be 0.195 µg/mL. This molecule came in with a neutralisation IC50 in [8] of 0.143 µg/mL.

B8: N6 N17FRH3 (antibody, V domains shown)
VH: RAHLVQSGTAMKKPGASVRVSCQTSGYTFTAHILFWFRQAPGRGLEWVGWIKPQYGAVNFGGGFRDRVTLTRDIYRDTAYMDISGLRFDDTAVYYCARDRSYGDSSWALDAWGQGTTVVVSA
VL: YIHVTQSPSSLSVSIGDRVTINCQTSQGVGSDLHWYQHKPGRAPKLLIHHTSSVEDGVPSRFSGSGFHTSFNLTISDLQADDIATYYCQVLQFFGRGSRLHIK
As for B8, in the assay with VRC01-resistant viruses [7], the neutralisation fold change (IC50 mutant/IC50 WT) stood at 10 fold and the neutralisation median IC50 was 0.18 µg/mL. Moreover, the neutralisation IC50 in assay [8] amounted to 0.106 µg/mL. The molecule further had a fold decrease in potency (IC50 of antibody mutant/IC50 of antibody WT) in the assay with VRC01-resistant viruses [5] of 7 fold.

B9: N6 N17FRH1 (antibody, V domains shown)
VH: RAHLVQSGTAVKRPGASVRVSCETSGYTFTAHILFWFRQAPGRGLEWVGWIKPQYGAVNFGGGFRDRVTLTRDVYREIAYMDIRGLKPDDTAVYYCARDRSYGDSSWALDAWGQGTTVVVSA
VL: YIHVTQSPSSLSVSIGDRVTINCQTSQGVGSDLHWYQHKPGRAPKLLIHHTSSVEDGVPSRFSGSGFHTSFNLTISDLQADDIATYYCQVLQFFGRGSRLHIK
In the assay with VRC01-resistant viruses [7], B9 displayed a neutralisation fold change (IC50 mutant/IC50 WT) of 6 fold and a neutralisation median IC50 of 0.111 µg/mL. The molecule also had a fold decrease in potency (IC50 of antibody mutant/IC50 of antibody WT) in the assay with VRC01-resistant viruses [5] of 5 fold.

B10: N6 VRC27CDRH3 (antibody, V domains shown)
VH: RAHLVQSGTAMKKPGASVRVSCQTSGYTFTAHILFWFRQAPGRGLEWVGWIKPQYGAVNFGGGFRDRVTLTRDVYREIAYMDIRGLKPDDTAVYYCARDRLYDGSSWRLDPWGQGTTVVVSA
VL: YIHVTQSPSSLSVSIGDRVTINCQTSQGVGSDLHWYQHKPGRAPKLLIHHTSSVEDGVPSRFSGSGFHTSFNLTISDLQADDIATYYCQVLQFFGRGSRLHIK
Consider B10, for which the neutralisation IC50 in the assay with 6631.V3.C10 (HIV-1) [6] came to 0.268 µg/mL. The molecule further had a neutralisation median IC50 in the assay with VRC01-resistant viruses [7] of 0.167 µg/mL. In the assay with VRC01-resistant viruses [5], the fold decrease in neutralization (IC50 of antibody mutant/IC50 of antibody WT) was found to be 10 fold.

B11: N6 VRC07CDRH3 (antibody, V domains shown)
VH: RAHLVQSGTAMKKPGASVRVSCQTSGYTFTAHILFWFRQAPGRGLEWVGWIKPQYGAVNFGGGFRDRVTLTRDVYREIAYMDIRGLKPDDTAVYYCARGKYCTARDYYNWALDAWGQGTTVVVSA
VL: YIHVTQSPSSLSVSIGDRVTINCQTSQGVGSDLHWYQHKPGRAPKLLIHHTSSVEDGVPSRFSGSGFHTSFNLTISDLQADDIATYYCQVLQFFGRGSRLHIK
In the case of B11, the neutralisation IC50 with 6631.V3.C10 (HIV-1) [2] and with T250-4 (HIV-1) [13] was greater than 50 µg/mL throughout. In the assay with VRC01-resistant viruses [3], the neutralisation median IC50 is 48.2 µg/mL.

B12: N6 VRC27CDRH2 (antibody, V domains shown)
VH: RAHLVQSGTAMKKPGASVRVSCQTSGYTFTAHILFWFRQAPGRGLEWVGWIKPKFGAVNYAHSFQGRVTLTRDVYREIAYMDIRGLKPDDTAVYYCARDRSYGDSSWALDAWGQGTTVVVSA
VL: YIHVTQSPSSLSVSIGDRVTINCQTSQGVGSDLHWYQHKPGRAPKLLIHHTSSVEDGVPSRFSGSGFHTSFNLTISDLQADDIATYYCQVLQFFGRGSRLHIK
Regarding B12, the neutralisation IC50 was found to be 1.17 µg/mL with 6631.V3.C10 (HIV-1) [6] and 1.57 µg/mL in the assay with T250-4 (HIV-1) [14]. Further, the neutralisation median IC50 with VRC01-resistant viruses [7] was 1.37 µg/mL. For the same molecule, the fold decrease in neutralization (IC50 of antibody mutant/IC50 of antibody WT) with VRC01-resistant viruses [5] came to 78 fold.

B13: N6 VRC08CDRH3 (antibody, V domains shown)
VH: RAHLVQSGTAMKKPGASVRVSCQTSGYTFTAHILFWFRQAPGRGLEWVGWIKPQYGAVNFGGGFRDRVTLTRDVYREIAYMDIRGLKPDDTAVYYCARGRSCCGGRRHCNGADCFNWALDAWGQGTTVVVSA
VL: YIHVTQSPSSLSVSIGDRVTINCQTSQGVGSDLHWYQHKPGRAPKLLIHHTSSVEDGVPSRFSGSGFHTSFNLTISDLQADDIATYYCQVLQFFGRGSRLHIK
Turning to B13, the neutralisation IC50 with T250-4 (HIV-1) [13] is greater than 50 µg/mL; in [4], 1.4 µg/mL. This molecule also registered a neutralisation median IC50 with VRC01-resistant viruses [3] greater than 50 µg/mL.

The values above are taken from patent US20180298083A1.
